Reference: US20260347486 (published 2026)

Biological target: IL-18BP (human)
Assay: BLI

Row | binding result | Binder
1 | no binding | IL18R_tanVHHβ15α2 (antibody, V domains shown) V domain 1: DVQLQESGGGLVQPGGSLRLSCAASGRFFTINAMGWYRQTPGKQRELVAAITSDGSTTYQDSVKGRFTISRDNANRTANLYMNSLKSEDTAVYYCNADGRFNDNGYVKNFNIWGQGTQVTVSS V domain 2: DVQLQESGGGLVQAGGSLRLSCAASGFTLLDSYDIGWFRQAPGKKREEVSCISSSGGKSTYYADSVKGRFTISRDNANNTVYLQMNSLKPEDTAVYYCAADGAEGFWSCQSGGYDYWGQGTQVTVSS
2 | no binding | IL18R_VHHα2β15 (antibody, V domains shown) V domain 1: DVQLQESGGGLVQAGGSLRLSCAASGFTLLDSYDIGWFRQAPGKKREEVSCISSSGGKSTYYADSVKGRFTISRDNANNTVYLQMNSLKPEDTAVYYCAADGAEGFWSCQSGGYDYWGQGTQVTVSS V domain 2: DVQLQESGGGLVQPGGSLRLSCAASGRFFTINAMGWYRQTPGKQRELVAAITSDGSTTYQDSVKGRFTISRDNANRTANLYMNSLKSEDTAVYYCNADGRFNDNGYVKNFNIWGQGTQVTVSS
